Measurements published in publication PMC12990809.

How the values were obtained:
Test in all cases: pulldown
Conditions in all cases: 20 nM protein, 1.5 uM RNA pool; 20 mM HEPES pH 7.8, 70 mM KCl, 10 mM NaCl, 10% glycerol, 2 mM DTT, 0.1 ug/uL BSA; 30 min, 4 C
[1] = biological target: T1, Smp_036270 E366G (Schistosoma mansoni) (UniProt A0A3Q0KEI3)
T1 sequence: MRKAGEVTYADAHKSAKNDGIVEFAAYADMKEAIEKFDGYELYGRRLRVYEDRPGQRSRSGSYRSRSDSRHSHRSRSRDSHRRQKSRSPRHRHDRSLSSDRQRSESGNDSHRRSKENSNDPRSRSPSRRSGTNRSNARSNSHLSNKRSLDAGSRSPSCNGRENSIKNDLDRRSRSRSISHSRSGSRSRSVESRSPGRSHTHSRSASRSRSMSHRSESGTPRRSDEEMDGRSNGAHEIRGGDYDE

[2] = biological target: T2, CBG03563 (Caenorhabditis briggsae) (UniProt A8WVC5)
T2 sequence: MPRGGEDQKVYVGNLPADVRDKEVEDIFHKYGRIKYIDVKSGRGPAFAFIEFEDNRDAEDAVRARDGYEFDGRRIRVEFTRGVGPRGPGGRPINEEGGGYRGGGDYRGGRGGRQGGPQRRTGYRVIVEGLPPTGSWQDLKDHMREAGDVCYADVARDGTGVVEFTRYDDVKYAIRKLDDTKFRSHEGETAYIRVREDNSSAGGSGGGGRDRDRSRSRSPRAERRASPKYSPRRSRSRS

[3] = biological target: T3, PK25912.1 V2I;D3L;F4R (Cannabis sativa) (UniProt A0A803Q7P0)
T3 sequence: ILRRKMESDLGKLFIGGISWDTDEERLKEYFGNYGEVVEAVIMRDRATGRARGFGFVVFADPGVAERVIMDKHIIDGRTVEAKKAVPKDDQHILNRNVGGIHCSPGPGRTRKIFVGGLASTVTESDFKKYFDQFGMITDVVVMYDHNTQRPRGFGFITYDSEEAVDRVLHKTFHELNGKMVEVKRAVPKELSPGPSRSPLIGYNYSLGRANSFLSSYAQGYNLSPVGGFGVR

[4] = biological target: T4, CPEB1 E201G;P348T;C438Y (Homo sapiens) (UniProt Q9BZB8)
T4 sequence: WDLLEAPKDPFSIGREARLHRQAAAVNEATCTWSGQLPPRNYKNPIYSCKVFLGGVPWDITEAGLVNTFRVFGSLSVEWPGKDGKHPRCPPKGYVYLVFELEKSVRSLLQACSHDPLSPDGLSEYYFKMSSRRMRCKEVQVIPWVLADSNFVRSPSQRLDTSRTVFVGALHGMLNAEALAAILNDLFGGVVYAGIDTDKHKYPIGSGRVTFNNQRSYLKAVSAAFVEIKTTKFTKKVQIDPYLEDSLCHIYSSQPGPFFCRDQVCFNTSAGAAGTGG

[5] = biological target: T5, Y57G11C.36 (Caenorhabditis elegans) (UniProt Q8I4C4)
T5 sequence: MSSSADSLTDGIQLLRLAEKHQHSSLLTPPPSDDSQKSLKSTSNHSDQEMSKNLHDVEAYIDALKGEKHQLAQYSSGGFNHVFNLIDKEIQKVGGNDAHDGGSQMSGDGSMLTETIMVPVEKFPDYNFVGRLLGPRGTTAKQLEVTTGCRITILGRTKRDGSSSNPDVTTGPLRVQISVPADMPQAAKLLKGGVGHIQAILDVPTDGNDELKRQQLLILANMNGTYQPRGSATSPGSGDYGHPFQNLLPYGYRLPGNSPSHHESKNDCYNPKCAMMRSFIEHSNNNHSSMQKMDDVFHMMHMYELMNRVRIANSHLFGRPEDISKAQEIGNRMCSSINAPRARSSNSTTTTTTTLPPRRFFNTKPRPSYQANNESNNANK

[6] = biological target: T6, CBG05471 (Caenorhabditis briggsae) (UniProt A8WZY6)
T6 sequence: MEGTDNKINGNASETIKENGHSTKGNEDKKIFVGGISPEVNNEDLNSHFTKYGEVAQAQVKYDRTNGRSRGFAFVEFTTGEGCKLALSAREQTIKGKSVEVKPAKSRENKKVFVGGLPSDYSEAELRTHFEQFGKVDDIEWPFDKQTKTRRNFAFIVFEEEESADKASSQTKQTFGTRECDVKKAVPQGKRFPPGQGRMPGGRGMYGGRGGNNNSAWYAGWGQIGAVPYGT

[7] = biological target: T7, nop12 (Schizosaccharomyces pombe) (UniProt O13741)
T7 sequence: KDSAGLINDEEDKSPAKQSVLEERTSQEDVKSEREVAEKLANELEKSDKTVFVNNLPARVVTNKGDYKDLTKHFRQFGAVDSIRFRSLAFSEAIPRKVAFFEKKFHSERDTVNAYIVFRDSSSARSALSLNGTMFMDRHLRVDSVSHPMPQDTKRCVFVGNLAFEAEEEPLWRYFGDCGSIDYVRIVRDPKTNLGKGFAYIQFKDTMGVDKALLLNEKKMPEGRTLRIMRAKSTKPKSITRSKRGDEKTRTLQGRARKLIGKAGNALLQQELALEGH

[8] = biological target: T8, NEMVEDRAFT_v1g214798 (Nematostella vectensis) (UniProt A7SN30)
T8 sequence: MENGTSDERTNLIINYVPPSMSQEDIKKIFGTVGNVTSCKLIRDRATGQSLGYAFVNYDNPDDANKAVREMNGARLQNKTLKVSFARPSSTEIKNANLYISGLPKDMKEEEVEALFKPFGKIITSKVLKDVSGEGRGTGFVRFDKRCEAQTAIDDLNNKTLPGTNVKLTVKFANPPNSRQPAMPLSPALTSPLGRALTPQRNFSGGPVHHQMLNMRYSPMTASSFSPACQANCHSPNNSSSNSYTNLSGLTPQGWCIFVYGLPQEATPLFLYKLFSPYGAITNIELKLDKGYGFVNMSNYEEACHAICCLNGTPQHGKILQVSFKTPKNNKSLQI

CGGAGG [RNAcompete motif RNCMPT00417]
binding signal (z-score (mean of top ten 7-mers)) [1]: 13.5

GGACGANG [RNAcompete motif RNCMPT00433]
binding signal (z-score (mean of top ten 7-mers)) [2]: 7.68

UAGGAA [RNAcompete motif RNCMPT00430]
binding signal (z-score (mean of top ten 7-mers)) [3]: 8.55

UUUUUUA [RNAcompete motif RNCMPT00434]
binding signal (z-score (mean of top ten 7-mers)) [4]: 13.2

CUACUAG [RNAcompete motif RNCMPT00423]
binding signal (z-score (mean of top ten 7-mers)) [5]: 15.3

AGUAA [RNAcompete motif RNCMPT00422]
binding signal (z-score (mean of top ten 7-mers)) [6]: 9.16

GAACG [RNAcompete motif RNCMPT00412]
binding signal (z-score (mean of top ten 7-mers)) [7]: 25.9

UUNUUUU [RNAcompete motif RNCMPT00421]
binding signal (z-score (mean of top ten 7-mers)) [8]: 11.9
